Experimental data taken from patent US20230287120A1 (ALLOGENE THERAPEUTICS, published 2023).
Numbering of substitutions follows the chain as printed.

B1: anti-DLL3 antibody 11A3 (IgG) (antibody, V domains shown)
VH: QVQLQESGPGLVKPSETLSLTCTVSSDSISNYYWSWIRQPPGKGLEWISYIYYSGITNYNPSLKSRVTISVDTSKNQFSLKLSSVTAADTAVYYCARITVTGFYFDYWGQGTLVTVSS
VL: EIVLTQSPGTLSLSPGERATLSCRASQSISRSYLAWYQQKPGQAPRHLIYGASSRATGIPDRFSGSGSGTDFILTISRLEPEDFAVYYCQQYDTSPLTFGGGTKVEIK
notes: Full-length monoclonal antibody (IgG)
B2: anti-DLL3 antibody 7F9 (IgG) (antibody, V domains shown)
VH: EVQLVESGGGLVQPGGSLRLSCAASGFTFSSHDMHWVRQATGKGLEWVSAIGIAGDTYYSGSVKGRFTISRENAKNSLYLQMNSLRAGDTAVYYCARANWGEGAFDIWGQGTMVTVSS
VL: DIQMTQSPSSLSASVGDRVTITCRASQGISDYLAWYQQKPGKIPKLLIYAASTLQSGVPSRFSGSGSGTDFTLTISSLQPEDVATYYCQKYNSVPLTFGGGTKVEIK
notes: as for B1
B3: 9H12-K (other)
CAR: QVQLVQSGAEVKKPGASVKVSCKASGYTFTGYSIHWVRQAPGQGLEWMGWINPNSGGTFYAQKFQGRVTMTRDTSISTVYMELSRLRSDDTAVYYCARDGWGDYYYYGLDVWGQGTTVTVSLGGGGSGGGGSGGGGSGGGGSDIQMTQSPSSVSASVGDRVTITCRASQDISSWLAWYQQKPGKAPKLLIYTASSLQGGVPSRFSGSGSGTDFTLTISSLQPEDLATYSCQQANVFPYTFGQGTKLEIKTTTPAPRPPTPAPTIASQPLSLRPEACRPAAGGAVHTRGLDFACDIYIWAPLAGTCGVLLLSLVITKRGRKKLLYIFKQPFMRPVQTTQEEDGCSCRFPEEEEGGCELRVKFSRSADAPAYQQGQNQLYNELNLGRREEYDVLDKRRGRDPEMGGKPRRKNPQEGLYNELQKDKMAEAYSEIGMKGERRRGKGHDGLYQGLSTATKDTYDALHMQALPPR
notes: also called anti-DLL3 CAR with 9H12-K scFv, on primary T cells
B4: anti-DLL3 antibody 2G1 (IgG) (antibody, V domains shown)
VH: QLQLQESGPGLVKPSETLSLTCTVSGGSISSSSYYWGWIRQPPGKGLEWIGSIYYSGNIYHNPSLKSRVSISVDTSKNQFSLRLSSVTAADTAVYYCAREIIVGATHFDYWGQGTLVTVSS
VL: AIQMTQSPSSLSASVGDRVTITCRASQGIRNDLGWYQQKPGKAPELLIYAASSLQSGVPSRFSGSGSGTDFTLTISSLQPEDFATYYCLQDYNYPLTFGPGTKVDIK
notes: as for B1
B5: anti-DLL3 antibody 17A2 (IgG) (antibody, V domains shown)
VH: QVQLQESGPGLVKPSGTLSLTCVVFGDSISSSNWWSWVRQPPGKGLEWIGEVFHSGSTNYNPSLKSRVTISVDKSKNQFSLKLSSVTAADTAVYYCARAAVAGALDYWGQGTLVTVSS
VL: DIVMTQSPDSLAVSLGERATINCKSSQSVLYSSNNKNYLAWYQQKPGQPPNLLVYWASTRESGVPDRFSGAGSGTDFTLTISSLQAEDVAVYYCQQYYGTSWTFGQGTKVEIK
notes: as for B1
B6: 10G1-K (other)
CAR: EVQLLESGGGLVQPGGSLRLSCAASGFTFSSYAMNWVRQAPGKGLEWVSTISGSGGSTYYADSVKGRFTISRDNSKNTLYLQMNSLRAEDTAVFYCAIDPEYYDILTGGDYWGQGTLVTVSSGGGGSGGGGSGGGGGSGGGGSDIQMTQSPSAMSASVGDRVTITCRASQGISNYLAWFQQKPGKVPKRLIYAASSLQSGVPSRFSGSGSGTEFTLTISSLQPEDFATYFCLQHDSFPLTFGGGTKVEIKTTTPAPRPPTPAPTIASQPLSLRPEACRPAAGGAVHTRGLDFACDIYIWAPLAGTCGVLLLSLVITKRGRKKLLYIFKQPFMRPVQTTQEEDGCSCRFPEEEEGGCELRVKFSRSADAPAYQQGQNQLYNELNLGRREEYDVLDKRRGRDPEMGGKPRRKNPQEGLYNELQKDKMAEAYSEIGMKGERRRGKGHDGLYQGLSTATKDTYDALHMQALPPR
notes: also called anti-DLL3 CAR with 10G1-K scFv, on primary T cells
B7: 11A3 (other)
CAR: QVQLQESGPGLVKPSETLSLTCTVSSDSISNYYWSWIRQPPGKGLEWISYIYYSGITNYNPSLKSRVTISVDTSKNQFSLKLSSVTAADTAVYYCARITVTGFYFDYWGQGTLVTVSSGGGGSGGGGSGGGGSGGGGSEIVLTQSPGTLSLSPGERATLSCRASQSISRSYLAWYQQKPGQAPRHLIYGASSRATGIPDRFSGSGSGTDFILTISRLEPEDFAVYYCQQYDTSPLTFGGGTKVEIKTTTPAPRPPTPAPTIASQPLSLRPEACRPAAGGAVHTRGLDFACDIYIWAPLAGTCGVLLLSLVITKRGRKKLLYIFKQPFMRPVQTTQEEDGCSCRFPEEEEGGCELRVKFSRSADAPAYQQGQNQLYNELNLGRREEYDVLDKRRGRDPEMGGKPRRKNPQEGLYNELQKDKMAEAYSEIGMKGERRRGKGHDGLYQGLSTATKDTYDALHMQALPPR
notes: also called anti-DLL3 CAR with 11A3 scFv, on primary T cells
B8: 4H8 (other)
CAR: QVQLQQSGPGLVKPSQTLSLTCAISGDSVSSNSATWNWIRQSPSRGLEWLGRTYYRSKWYDDYAVSVKSRITINPDTSKNHLSLHLNSVTPEDTAVYYCAGGGLVGAPDGFDVWGQGTMVTVSSGGGGSGGGGSGGGGSGGGGSQSVLTQPPSASGTPGQRVTISCSGSSSNIGSDPVNWYQQLPGTAPKLLIYSNNQRPSGVPDRFSGSKSGTSASLAISGLQSEDEADYYCSAWDDSLNGYVFGTGTKVTVLTTTPAPRPPTPAPTIASQPLSLRPEACRPAAGGAVHTRGLDFACDIYIWAPLAGTCGVLLLSLVITKRGRKKLLYIFKQPFMRPVQTTQEEDGCSCRFPEEEEGGCELRVKFSRSADAPAYQQGQNQLYNELNLGRREEYDVLDKRRGRDPEMGGKPRRKNPQEGLYNELQKDKMAEAYSEIGMKGERRRGKGHDGLYQGLSTATKDTYDALHMQALPPR
notes: also called anti-DLL3 CAR with 4H8 scFv, on primary T cells
B9: anti-DLL3 antibody 4H8 (IgG) (antibody, V domains shown)
VH: QVQLQQSGPGLVKPSQTLSLTCAISGDSVSSNSATWNWIRQSPSRGLEWLGRTYYRSKWYDDYAVSVKSRITINPDTSKNHLSLHLNSVTPEDTAVYYCAGGGLVGAPDGFDVWGQGTMVTVSS
VL: not shown
notes: as for B1
B10: anti-DLL3 antibody 3F2 (IgG) (antibody, V domains shown)
VH: QVQLQESGPGLVKPSGTLSLTCAVSGGSISSNNWWSWVRQPPGKGLEWIGDIHHSGSTNYKPSLKSRVTISVDKSKNQFSLNLISVTAADTAVYYCAREAGGYFDYWGQGILVTVSS
VL: DIQMTQSPSTLSASVGDRVTITCRASQSISSWLAWYQQKPGKAPKLLISKASSLESGVPSRFSGSGSGPEFTLTISSLQPADFATYYCQQYNSYSTFGQGTKLEIK
notes: as for B1
B11: anti-DLL3 antibody 2D3 (IgG) (antibody, V domains shown)
VH: QVQLQESGPGLVKPSETLSLTCTVSDNSISNYYWSWIRQPPGKGLEWIAYIYYSGTTNYNPSLKSRVTISLDTSKNQFSLKLSSVTAADTAVYYCARLFNWGFAFDIWGQGTMVTVSS
VL: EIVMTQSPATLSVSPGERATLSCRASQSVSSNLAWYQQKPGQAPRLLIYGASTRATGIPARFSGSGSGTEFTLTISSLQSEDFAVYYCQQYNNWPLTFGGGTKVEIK
notes: as for B1
B12: anti-DLL3 antibody 9D3 (IgG) (antibody, V domains shown)
VH: B11 VH with N27D, A49G, Y52F, Y59H, V67L, T73K, S74A, K81R, L98V
VL: B1 VL with S28R, S32T, H47L, S64T, I73T, D93G, K108N
notes: as for B1
B13: anti-DLL3 antibody 8E11 (IgG) (antibody, V domains shown)
VH: B11 VH with D26G, N27D, S35T, A49G, Y59S, I69V, N76S, K81N, L98V, W101R
VL: B1 VL with S28R, R31N, S32T, H47L, I73T, V86A
notes: as for B1
B14: anti-DLL3 antibody 2A6.C5 (IgG) (antibody, V domains shown)
VH: B11 VH with D26N, N27V, N31S, A49G, I69M, L71V, Y94F, F99S, V116F
VL: EIVLTQSPGTLSLSPGERATLSCRASQTISSSYLAWYQQKPGQAPRLLIYGASSRATGIPDRFSGSGSGTEFTLTISRLEPEDFAVYYCQQYGWSPITFGQGTRLEIK
notes: as for B1
B15: anti-DLL3 antibody 6F8 (IgG) (antibody, V domains shown)
VH: QVQLVQSGAEVKKPGSSVKVSCKASGGTFTNYCISWVRQAPGQGLEWMGGIIPIFGTTNYAQTFQGRVTITADKSTSTAYMELSSLRSEDTAVYYCARDNGDRYYYDMDVWGQGTTVTVSS
VL: QSVLTQPPSVSAAPGQKVTISCSGSSSNIGNNYVSWYQQLPGTAPKLLIYDNNKRPSGIPDRFSGSKSGTSATLGITGLQTGDEADYYCGTWDSSLSAVVFGGGTKLTVL

Columns and labels:
[1] = molecular target: T1, human DLL3 extracellular domain (ECD) with C-terminal 8xHis tag and Avi tag (human, UniProt Q9NYJ7 27-492); experiment: SPR (Biacore), 37 C; IgG captured on chip, human DLL3 ECD in solution; 1:1 Langmuir fit
T1 construct: extracellular domain; Expressed in Expi293, purified by IMAC and SEC; also called huDLL3; not shown: Avi tag
T1 sequence: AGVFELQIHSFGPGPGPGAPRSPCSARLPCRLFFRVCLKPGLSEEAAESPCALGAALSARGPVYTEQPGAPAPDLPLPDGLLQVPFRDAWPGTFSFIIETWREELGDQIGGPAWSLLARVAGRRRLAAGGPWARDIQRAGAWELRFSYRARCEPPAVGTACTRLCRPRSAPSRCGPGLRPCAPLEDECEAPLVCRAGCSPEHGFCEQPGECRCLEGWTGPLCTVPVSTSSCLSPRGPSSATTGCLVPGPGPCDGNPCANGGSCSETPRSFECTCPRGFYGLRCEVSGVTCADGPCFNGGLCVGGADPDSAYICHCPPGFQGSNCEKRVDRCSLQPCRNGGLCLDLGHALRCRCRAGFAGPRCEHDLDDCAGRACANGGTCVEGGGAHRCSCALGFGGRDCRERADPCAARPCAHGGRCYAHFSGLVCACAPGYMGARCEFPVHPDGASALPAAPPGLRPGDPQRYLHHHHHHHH

[2] = molecular target: T2, Flag tagged recombinant DLL3 (Adipogen) (Homo sapiens (Human), UniProt Q9NYJ7 27-492); experiment: flow cytometry, percent of T cells that recognise recombinant DLL3, Donor 503
T2 construct: Bought reagent; also called Flag-DLL3
T2 sequence: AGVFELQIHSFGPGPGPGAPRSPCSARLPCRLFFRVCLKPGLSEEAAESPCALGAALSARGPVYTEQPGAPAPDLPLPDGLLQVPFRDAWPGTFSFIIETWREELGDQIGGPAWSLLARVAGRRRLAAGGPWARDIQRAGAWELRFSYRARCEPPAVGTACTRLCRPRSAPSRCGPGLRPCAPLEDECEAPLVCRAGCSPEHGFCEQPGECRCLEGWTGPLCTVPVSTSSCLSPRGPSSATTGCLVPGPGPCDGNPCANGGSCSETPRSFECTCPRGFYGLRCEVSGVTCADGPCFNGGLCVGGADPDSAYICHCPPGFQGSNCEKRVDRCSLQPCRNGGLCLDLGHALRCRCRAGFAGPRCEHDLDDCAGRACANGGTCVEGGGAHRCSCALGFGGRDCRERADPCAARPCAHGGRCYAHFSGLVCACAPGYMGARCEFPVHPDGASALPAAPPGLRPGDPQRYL
Experimental: (§1) To determine the percentage of T cells that were successfully transduced with DLL3 CAR, T cells were first incubated with 1 ug/ml Flag tagged recombinant DLL3 (Adipogen) in PBS+1% BSA for 20 minutes at 4 C.

[3] = molecular target: T2, Flag tagged recombinant DLL3 (Adipogen); experiment: flow cytometry, primary T cells with the CAR, 1 ug/ml Flag tagged recombinant DLL3, PE anti-Flag
Experimental: as §1

[4] = molecular target: T2, Flag tagged recombinant DLL3 (Adipogen); experiment: flow cytometry, percent of T cells that recognise recombinant DLL3, Donor 772
Experimental: as §1

| Binder | Kd [1] [nM] | Transduction efficiency [2] [%] | Rec-DLL3 gate, percent of live CD3+ cells [3] [%] | Transduction efficiency [4] [%] |
| --- | --- | --- | --- | --- |
| B1 | 4.8 | – | – | – |
| B2 | 12.7 | – | – | – |
| B3 | – | 41.4 | 56.3 | 35.6 |
| B4 | 38.1 | – | – | – |
| B5 | 5.49 | – | – | – |
| B6 | – | 53.7 | 51.8 | 33.7 |
| B7 | – | 42.1 | 57.3 | 20 |
| B8 | – | 39.3 | 77.9 | 27.2 |
| B9 | 18.5 | – | – | – |
| B10 | 14.8 | – | – | – |
| B11 | 5.47 | – | – | – |
| B12 | 21.1 | – | – | – |
| B13 | 5.86 | – | – | – |
| B14 | 23.4 | – | – | – |
| B15 | 26.5 | – | – | – |
